Reference: EP2899279A1

T1: Grapevine fanleaf virus strain F13 (purified viral particles) (Grapevine fanleaf virus, strain F13) (UniProt P18474)
T1 sequence (looked up): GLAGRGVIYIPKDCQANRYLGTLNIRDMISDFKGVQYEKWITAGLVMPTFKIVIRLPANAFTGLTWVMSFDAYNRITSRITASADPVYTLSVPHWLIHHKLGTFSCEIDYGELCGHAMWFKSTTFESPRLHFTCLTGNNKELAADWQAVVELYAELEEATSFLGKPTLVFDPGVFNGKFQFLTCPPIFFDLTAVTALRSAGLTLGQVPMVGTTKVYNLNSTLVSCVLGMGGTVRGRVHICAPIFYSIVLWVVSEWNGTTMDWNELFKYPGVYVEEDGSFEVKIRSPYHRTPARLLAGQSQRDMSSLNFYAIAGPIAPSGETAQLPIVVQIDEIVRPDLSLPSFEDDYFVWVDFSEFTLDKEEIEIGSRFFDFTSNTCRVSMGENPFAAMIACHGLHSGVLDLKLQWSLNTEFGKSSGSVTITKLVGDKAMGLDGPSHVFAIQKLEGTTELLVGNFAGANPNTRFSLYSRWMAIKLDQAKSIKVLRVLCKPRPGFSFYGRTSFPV

B1: Nb23:EGFP fusion protein (Nb23:EGFP:His6, expressed in E. coli) (protein, part only; not given: EGFP and cloning residues, not shown: large carriers)
chain, part: QVQLQESGGGSVQVGGSLRVACAASGDTFSGYLAAWFRQAPGKGREGVAAINSKRHTTSYADSVKGRFTISKDNADNIMYLEMNSLKPEDTAIYYCAAADAIGLAEYWSTPTLSAARYKYWGQGTQVTVSSGGGSGGGHHHHHH
B2: Nb23 (His6-tagged, purified from E. coli) (VHH)
VHH: QVQLQESGGGSVQVGGSLRVACAASGDTFSGYLAAWFRQAPGKGREGVAAINSKRHTTSYADSVKGRFTISKDNADNIMYLEMNSLKPEDTAIYYCAAADAIGLAEYWSTPTLSAARYKYWGQGTQVTVSS

Legend:
[1] = target: T1, Grapevine fanleaf virus strain F13 (purified viral particles) (Grapevine fanleaf virus, strain F13); assay: dynamic light scattering: GFLV-F13 at 0.1 mg/ml with Nb23:EGFP at 0.9 mg/ml; virus alone 32 nm
[2] = target: T1, Grapevine fanleaf virus strain F13 (purified viral particles) (Grapevine fanleaf virus, strain F13); assay: dynamic light scattering: GFLV-F13 at 0.1 mg/ml with Nb23 at 0.1 mg/ml; virus alone 32 nm

| Binder | average hydrodynamic diameter of viral particles in the presence of the binder [1] [nm] | average hydrodynamic diameter of viral particles in the presence of the binder [2] [nm] |
| --- | --- | --- |
| B1 | 43.8 |  |
| B2 |  | 37.8 |
